Data from US7078382 (dated 2006).
Substitutions are numbered along the chain they refer to.

B1: LK-VRB-17s (ligand)
chain: APMAEGGGQNHHEVVKFEDVLRRSYCHPIETLVDIFQEYPDEIEYIFKPSCVPLMRCGGCCNSEMRECVPTEESNITMQIMRIKPHQGQHIGEMSFLQHNKCECRPKKD
B2: LK-VRB-18s (ligand)
chain: B1 chain with R22Q, Y25S
B3: LK-VRB-7s* (ligand)
chain: B1 chain with L21Y, R22Q
B4: LK-VRB-20s (ligand)
chain: B1 chain with E18M, Y25S
B5: LK-VRB-15s (ligand)
chain: B1 chain with E18M, R22Q, Y25S
B6: LK-VRB-1s* (ligand)
chain: B1 chain with Y25S, S63D, M65G, R66L
B7: LK-VRB-11s (ligand)
chain: B1 chain with R22Q
B8: LK-VRB-25s (ligand)
chain: B1 chain with Y25S, M65G
B9: LK-VRB-24s (ligand)
chain: B1 chain with Y25S, R66L
B10: LK-VRB-12s (ligand)
chain: B1 chain with L21Y
B11: LK-VRB-23s (ligand)
chain: B1 chain with Y25S, S63D, M65G
B12: LK-VRB-8s* (ligand)
chain: B1 chain with E18M, R22Q
B13: LK-VRB-22s (ligand)
chain: B1 chain with Y25S, S63D, R66L
B14: LK-VRB-16s (ligand)
chain: B1 chain with E18M, L21Y, Y25S
B15: LK-VRB-4s (ligand)
chain: B1 chain with F17I, L21F, R22E, Y25I, S63D, M65G, R66L
B16: LK-VRB-26s (ligand)
chain: B1 chain with Y25S, S63D
B17: LK-VRB-9s (ligand)
chain: B1 chain with E18M, L21Y
B18: LK-VRB-2s* (ligand)
chain: B1 chain with E18M, L21Y, R22Q
B19: LK-VRB-10s (ligand)
chain: B1 chain with E18M, L21Y, R22Q, Y25S
B20: LK-VRB-3s (ligand)
chain: B1 chain with F17I, L21F, R22K, Y25S, S63D, M65G, R66L
B21: LK-VRB-14s (ligand)
chain: B1 chain with E18M
B22: LK-VRB-13s (ligand)
chain: B1 chain with L21Y, R22Q, Y25S
B23: LK-VRB-21s (ligand)
chain: B1 chain with Y25S, M65G, R66L
B24: native VEGF (8-109) (ligand)
chain: GQNHHEVVKFMDVYQRSYCHPIETLVDIFQEYPDEIEYIFKPSCVPLMRCGGCCNDEGLECVPTEESNITMQIMRIKPHQGQHIGEMSFLQHNKCECRPKKD
B25: LK-VRB-2f (ligand)
chain: APMAEGGGQNHHEVVKFMDVYQRSYCHPIETLVDIFQEYPDEIEYIFKPSCVPLMRCGGCCNSEMRECVPTEESNITMQIMRIKPHQGQHIGEMSFLQHNKCECRPKKDRARQENPCGPCSERRKHLFVQDPQTCKCSCKNTDSRCKARQLELNERTCRCDKPRR
notes: also called KDR-full

How the values were obtained:
KDR (1-3) = molecular target: T1, KDR (1-3) (UniProt P35968 20-327, limits assumed); assay: competition ELISA, biotinylated native VEGF (8-109) as tracer, KDR (1-3) captured by mAb MAKD5
T1 construct: domain: KDR (1-3); Soluble KDR (1-3) at 1 ug/ml, captured on the plate by anti-KDR monoclonal antibody MAKD5; also called KDR (1-3) monomer
T1 sequence (P35968 20-327 limits assumed): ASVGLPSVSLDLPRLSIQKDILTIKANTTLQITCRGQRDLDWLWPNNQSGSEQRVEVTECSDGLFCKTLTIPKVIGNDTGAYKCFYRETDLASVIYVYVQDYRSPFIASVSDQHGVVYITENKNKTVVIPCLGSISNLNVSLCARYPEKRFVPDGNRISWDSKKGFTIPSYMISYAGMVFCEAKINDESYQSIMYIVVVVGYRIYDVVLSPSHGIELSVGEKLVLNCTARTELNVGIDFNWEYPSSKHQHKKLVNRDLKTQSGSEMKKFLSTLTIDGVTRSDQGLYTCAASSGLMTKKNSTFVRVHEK

Flt-IgG = molecular target: T2, Flt-IgG (human, UniProt P17948 27-758, limits assumed); assay: competition ELISA, biotinylated native VEGF as tracer, Flt-IgG captured by anti-human Fc
T2 construct: Only described as 'a chimeric Flt-human Fc molecule'; captured by rabbit F(ab')2 to human IgG Fc; also called chimeric Flt-human Fc molecule; not shown: human IgG Fc
T2 sequence (P17948 27-758 limits assumed): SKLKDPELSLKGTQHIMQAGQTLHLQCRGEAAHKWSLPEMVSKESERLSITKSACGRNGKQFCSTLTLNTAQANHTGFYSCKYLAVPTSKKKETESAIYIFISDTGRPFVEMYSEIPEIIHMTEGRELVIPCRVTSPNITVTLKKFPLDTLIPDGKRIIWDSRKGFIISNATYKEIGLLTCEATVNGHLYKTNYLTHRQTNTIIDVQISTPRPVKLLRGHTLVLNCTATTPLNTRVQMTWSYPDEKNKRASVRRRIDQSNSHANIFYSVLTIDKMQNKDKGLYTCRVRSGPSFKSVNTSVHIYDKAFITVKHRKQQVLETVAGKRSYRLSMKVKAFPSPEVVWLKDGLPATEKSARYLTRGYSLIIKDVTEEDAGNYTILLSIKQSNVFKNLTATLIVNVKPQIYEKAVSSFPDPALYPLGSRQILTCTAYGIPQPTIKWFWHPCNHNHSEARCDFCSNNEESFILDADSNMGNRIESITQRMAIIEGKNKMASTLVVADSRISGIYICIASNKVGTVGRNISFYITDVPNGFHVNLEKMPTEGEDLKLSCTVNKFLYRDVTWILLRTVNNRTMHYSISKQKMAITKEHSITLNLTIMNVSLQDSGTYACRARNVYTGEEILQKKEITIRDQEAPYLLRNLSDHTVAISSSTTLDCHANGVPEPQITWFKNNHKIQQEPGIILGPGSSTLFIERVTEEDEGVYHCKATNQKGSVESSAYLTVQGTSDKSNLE

[1] = molecular target: KDR receptor on human umbilical vein endothelial cells (HUVEC) (human, UniProt P35968 20-1356); assay: cell-based or functional assay
KDR receptor on human umbilical vein endothelial cells (HUVEC), sequence (P35968 20-1356): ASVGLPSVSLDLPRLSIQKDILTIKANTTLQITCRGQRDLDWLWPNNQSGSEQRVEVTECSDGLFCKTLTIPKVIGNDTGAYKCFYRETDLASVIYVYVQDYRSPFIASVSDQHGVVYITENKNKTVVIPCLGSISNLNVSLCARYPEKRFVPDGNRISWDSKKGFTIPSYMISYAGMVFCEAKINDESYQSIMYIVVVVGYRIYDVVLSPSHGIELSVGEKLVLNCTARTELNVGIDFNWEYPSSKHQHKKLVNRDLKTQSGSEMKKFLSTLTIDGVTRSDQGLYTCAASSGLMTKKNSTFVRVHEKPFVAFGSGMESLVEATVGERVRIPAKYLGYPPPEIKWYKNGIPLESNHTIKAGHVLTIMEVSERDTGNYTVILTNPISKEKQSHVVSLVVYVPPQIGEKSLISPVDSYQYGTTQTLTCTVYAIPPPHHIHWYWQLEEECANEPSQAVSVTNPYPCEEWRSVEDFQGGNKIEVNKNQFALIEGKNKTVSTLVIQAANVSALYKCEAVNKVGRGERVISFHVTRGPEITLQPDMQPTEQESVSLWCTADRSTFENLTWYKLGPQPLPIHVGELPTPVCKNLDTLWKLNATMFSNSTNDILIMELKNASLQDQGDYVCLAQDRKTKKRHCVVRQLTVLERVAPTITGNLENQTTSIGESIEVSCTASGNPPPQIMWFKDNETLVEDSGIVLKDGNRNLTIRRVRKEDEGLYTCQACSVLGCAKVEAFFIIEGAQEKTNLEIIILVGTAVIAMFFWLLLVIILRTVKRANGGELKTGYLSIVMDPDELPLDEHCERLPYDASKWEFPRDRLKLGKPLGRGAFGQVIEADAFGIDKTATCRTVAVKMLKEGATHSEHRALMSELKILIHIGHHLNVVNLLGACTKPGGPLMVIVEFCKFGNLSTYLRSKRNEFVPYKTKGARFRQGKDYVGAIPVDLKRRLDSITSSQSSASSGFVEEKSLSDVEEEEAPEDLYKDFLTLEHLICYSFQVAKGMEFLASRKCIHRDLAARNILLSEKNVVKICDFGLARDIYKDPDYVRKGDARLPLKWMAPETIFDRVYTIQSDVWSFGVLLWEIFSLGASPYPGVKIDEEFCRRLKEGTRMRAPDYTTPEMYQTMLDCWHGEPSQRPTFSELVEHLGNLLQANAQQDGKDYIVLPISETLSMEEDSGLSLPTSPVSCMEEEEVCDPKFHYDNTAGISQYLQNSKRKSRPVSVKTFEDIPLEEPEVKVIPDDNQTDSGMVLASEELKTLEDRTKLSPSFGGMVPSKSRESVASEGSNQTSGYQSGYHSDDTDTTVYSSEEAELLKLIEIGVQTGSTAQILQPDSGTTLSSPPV

[2] = molecular target: KDR receptor with a gD tag at the N-terminus, on CHO cells (UniProt P35968 20-1356); assay: cell-based or functional assay
[3] = molecular target: KDR receptor (RIA of Example 11) (UniProt P35968 20-764, limits assumed); assay: RIA essentially as in Muller et al. 1997
KDR receptor (RIA of Example 11), sequence (P35968 20-764 limits assumed): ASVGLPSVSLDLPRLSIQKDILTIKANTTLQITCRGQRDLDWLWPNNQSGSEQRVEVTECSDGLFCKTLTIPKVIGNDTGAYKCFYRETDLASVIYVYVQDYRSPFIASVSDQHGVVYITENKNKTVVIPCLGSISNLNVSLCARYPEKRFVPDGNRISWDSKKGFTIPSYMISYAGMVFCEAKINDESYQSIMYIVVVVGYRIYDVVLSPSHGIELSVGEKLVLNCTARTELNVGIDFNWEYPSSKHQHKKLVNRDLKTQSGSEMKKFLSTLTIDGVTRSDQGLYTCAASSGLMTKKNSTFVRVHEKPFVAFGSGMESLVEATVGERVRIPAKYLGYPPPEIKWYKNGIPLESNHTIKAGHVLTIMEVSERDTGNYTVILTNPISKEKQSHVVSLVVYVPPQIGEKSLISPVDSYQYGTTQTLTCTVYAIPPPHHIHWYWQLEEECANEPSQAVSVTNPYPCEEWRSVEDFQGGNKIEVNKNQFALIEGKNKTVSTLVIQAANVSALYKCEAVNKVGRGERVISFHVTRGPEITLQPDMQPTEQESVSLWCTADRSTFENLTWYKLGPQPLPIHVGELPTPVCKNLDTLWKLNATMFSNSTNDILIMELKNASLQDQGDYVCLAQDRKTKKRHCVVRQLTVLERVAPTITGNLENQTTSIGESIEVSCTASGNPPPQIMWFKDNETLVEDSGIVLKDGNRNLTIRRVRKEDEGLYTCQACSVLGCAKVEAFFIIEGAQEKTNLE

[4] = molecular target: FLT-1 receptor (RIA of Example 11) (UniProt P17948 27-758, limits assumed); assay: RIA essentially as in Muller et al. 1997
FLT-1 receptor (RIA of Example 11), sequence (P17948 27-758 limits assumed): as the sequence (P17948 27-758 limits assumed) above

Binder | IC50 (KDR (1-3)) [nM] | Relative Binding Affinity (KDR (1-3)) | other results
B1 | 3 | 3 fold of native VEGF (8-109) | 
B2 | 130 | 130 fold of native VEGF (8-109) | 
B3 | 1 | 1 fold of native VEGF (8-109) | Relative Binding Affinity (Flt-IgG): > 15000 fold of native VEGF (8-109); Endothelial Cell Proliferation Activity (HUVEC, 3H-thymidine), concentration [1]: 0.5 nM; Endothelial Cell Proliferation Activity (HUVEC, 3H-thymidine), ratio to native VEGF (8-109) [1]: 1 fold of native VEGF (8-109)
B4 | 2 | 2 fold of native VEGF (8-109) | 
B5 | 2 | 2 fold of native VEGF (8-109) | 
B6 | 1 | 1 fold of native VEGF (8-109) | Phosphorylation-Inducing Activity (KIRA), concentration at midpoint [2]: 1 nM; Phosphorylation-Inducing Activity (KIRA), ratio to native VEGF (8-109) [2]: 0.5 fold of native VEGF (8-109); IC50 (Flt-IgG): 2700 nM; Relative Binding Affinity (Flt-IgG): 6000 fold of native VEGF (8-109); Endothelial Cell Proliferation Activity (HUVEC, 3H-thymidine), concentration [1]: 0.1 nM; Endothelial Cell Proliferation Activity (HUVEC, 3H-thymidine), ratio to native VEGF (8-109) [1]: 0.2 fold of native VEGF (8-109); Relative Binding Affinity [3]: 20 fold of native VEGF 165; Relative Binding Affinity [4]: 14000 fold of native VEGF 165
B7 | 2 | 2 fold of native VEGF (8-109) | 
B8 | 4 | 4 fold of native VEGF (8-109) | 
B9 | 10 | 10 fold of native VEGF (8-109) | 
B10 | 0.4 | 0.4 fold of native VEGF (8-109) | 
B11 | 11 | 11 fold of native VEGF (8-109) | 
B12 | 0.5 | 0.5 fold of native VEGF (8-109) | Relative Binding Affinity (Flt-IgG): > 21000 fold of native VEGF (8-109); Endothelial Cell Proliferation Activity (HUVEC, 3H-thymidine), concentration [1]: 0.5 nM; Endothelial Cell Proliferation Activity (HUVEC, 3H-thymidine), ratio to native VEGF (8-109) [1]: 1 fold of native VEGF (8-109)
B13 | 4 | 4 fold of native VEGF (8-109) | 
B14 | 0.6 | 0.6 fold of native VEGF (8-109) | 
B15 | 1 | 1 fold of native VEGF (8-109) | Phosphorylation-Inducing Activity (KIRA), concentration at midpoint [2]: 1 nM; Phosphorylation-Inducing Activity (KIRA), ratio to native VEGF (8-109) [2]: 0.5 fold of native VEGF (8-109); IC50 (Flt-IgG): 100 nM; Relative Binding Affinity (Flt-IgG): 200 fold of native VEGF (8-109)
B16 | 23 | 23 fold of native VEGF (8-109) | 
B17 | 0.5 | 0.5 fold of native VEGF (8-109) | Relative Binding Affinity (Flt-IgG): 300 fold of native VEGF (8-109)
B18 |  |  | Phosphorylation-Inducing Activity (KIRA), concentration at midpoint [2]: 2 nM; Endothelial Cell Proliferation Activity (HUVEC, 3H-thymidine), concentration [1]: 0.05 nM
B19 | 0.5 | 0.5 fold of native VEGF (8-109) | 
B20 | 1 | 1 fold of native VEGF (8-109) | Phosphorylation-Inducing Activity (KIRA), concentration at midpoint [2]: 2 nM; Phosphorylation-Inducing Activity (KIRA), ratio to native VEGF (8-109) [2]: 1 fold of native VEGF (8-109); IC50 (Flt-IgG): 170 nM; Relative Binding Affinity (Flt-IgG): 400 fold of native VEGF (8-109)
B21 | 0.5 | 0.5 fold of native VEGF (8-109) | 
B22 | 14 | 14 fold of native VEGF (8-109) | 
B23 | 3 | 3 fold of native VEGF (8-109) | 
B24 |  |  | Phosphorylation-Inducing Activity (KIRA), concentration at midpoint [2]: 2 nM; IC50 (Flt-IgG): 0.42 nM; Endothelial Cell Proliferation Activity (HUVEC, 3H-thymidine), concentration [1]: 0.5 nM
B25 |  |  | IC50 (Flt-IgG): 19 nM; Endothelial Cell Proliferation Activity (HUVEC, 3H-thymidine), concentration [1]: 0.05 nM
